Data taken from US20150166606A1 (RA PHARMACEUTICALS, published 2015).
Numbered stars: 1 amine (or outer) side, 2 acyl side, 3 side chain; on linkers, the order of the positions; unused ones are H or OH. Bridge positions count the residues as written; N and C are the ends. Square brackets hold non-standard residues; d marks the D form. Ends that are not written are not given here. mXylyl = xylyl linker from dibromoxylene joining the two cysteines; Phe(3-CH2NH2) = O=C([C@H](Cc1cccc(CN[*:3])c1)N[*:1])[*:2]; Ala(1H-tetrazol-5-yl) = N[C@@H](Cc1nnn[nH]1)C(=O)O; des‑NH2 = missing amino-terminal amine group; Phe(4-CH2NH2) = NCc1ccc(C[C@H](N)C(=O)O)cc1; hexyltetrazolyl‑mXylyl = not defined here; η‑ω‑MeR = eta-omega methylated arginine; pXylylene = c1cc(C[*:2])ccc1C[*:1]; NMeE = CN[C@@H](CCC(=O)O)C(=O)O; Chg = N[C@H](C(=O)O)C1CCCCC1; Pen = CC(C)(S)[C@H](N)C(=O)O; Phg = N[C@H](C(=O)O)c1ccccc1; Tle = CC(C)(C)[C@H](N)C(=O)O; hLys = NCCCCC[C@H](N)C(=O)O; oXylyl = ortho-xylyl linker; mLutidine = meta-lutidine; Nva = CCC[C@H](N)C(=O)O; Sar = CNCC(=O)O

biological target: Activated human plasma kallikrein (Enzyme Research Laboratories, HPKa 1303) (human, UniProt P03952 20-638); assay: cell-based or functional assay
Sequence (P03952 20-638 limits assumed): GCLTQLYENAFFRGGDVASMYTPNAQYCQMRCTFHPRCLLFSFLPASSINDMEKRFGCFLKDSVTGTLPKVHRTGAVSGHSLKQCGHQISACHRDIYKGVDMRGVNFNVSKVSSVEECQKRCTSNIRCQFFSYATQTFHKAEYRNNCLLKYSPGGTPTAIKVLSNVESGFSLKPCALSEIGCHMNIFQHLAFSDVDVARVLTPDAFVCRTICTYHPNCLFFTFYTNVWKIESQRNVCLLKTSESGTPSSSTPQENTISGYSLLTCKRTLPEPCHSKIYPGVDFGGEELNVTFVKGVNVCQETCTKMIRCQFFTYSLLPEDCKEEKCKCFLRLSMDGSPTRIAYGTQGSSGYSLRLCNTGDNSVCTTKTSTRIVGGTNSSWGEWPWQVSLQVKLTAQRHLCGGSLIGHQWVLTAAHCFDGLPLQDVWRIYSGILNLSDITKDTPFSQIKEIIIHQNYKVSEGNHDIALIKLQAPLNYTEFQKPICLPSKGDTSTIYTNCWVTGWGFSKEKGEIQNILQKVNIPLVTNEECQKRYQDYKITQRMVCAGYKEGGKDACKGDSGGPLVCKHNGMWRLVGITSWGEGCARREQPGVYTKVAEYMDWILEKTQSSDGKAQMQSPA

Binder	Avg. IC50 [nM]
MCESICRV-NH2 (linker 2-6 via trans‑butenyl) [R2011]	12800
Ac-CESICRVLR-NH2 (linker 1-5 via mXylyl) [R2046]	59.3
[Nva]CESIC[Phe(3-CH2NH2)]V-NH2 (linker 2-6 via mXylyl) [R2022]	21000
Ac-CAS[Phg]C[Phe(4-CH2NH2)][Tle]-NH2 (linker 1-5 via mXylyl) [R2053]	5340
Ac-CESICRVLRYS-NH2 (linker 1-5 via mXylyl) [R2056]	1.9
MCESICRA-NH2 (linker 2-6 via mXylyl) [R2016]	3900
MCESICRV-NH2 (linker 2-6 via oXylyl) [R2042]	3190
MCETICRVLKYSD-NH2 (linker 2-6 via mXylyl) [R2005]	1.8
ACESICRV-NH2 (linker 2-6 via mXylyl) [R2025]	9.5
Ac-CESICRVLRY-NH2 (linker 1-5 via mXylyl) [R2055]	2.2
Ac-CESICRVLRYSE-NH2 (linker 1-5 via mXylyl) [R2057]	0.943
MCESICKV-NH2 (linker 2-6 via mXylyl) [R2040]	733
Ac-CA[Sar][Phg]CR[Tle]-NH2 (linker 1-5 via mXylyl) [R2052]	74.2
MCASICRV-NH2 (linker 2-6 via mXylyl) [R2024]	41.9
MCESICR-NH2 (linker 2-6 via mXylyl) [R2015]	16500
Ac-[Nva]CESIC[hLys]V-NH2 (linker 2-6 via mXylyl) [R2033]	8650
[Nva][Pen]ESICRV-NH2 (linker 2-6 via mXylyl) [R2031]	1460
MCESICRV-NH2 (linker 2-6 via mLutidine) [R2044]	645
MCESICRV-NH2 (linker 2-6 via hexyltetrazolyl‑mXylyl; reading uncertain; also: printed as [hexyltetrazolyl-mXylyl(2,6)]MCESICRV-NH2) [R2028]	714
Ac-CESICRVLK-NH2 (linker 1-5 via mXylyl) [R2038]	299

Binder	Avg. IC50 [nM]
[Nva]CESIC[hLys]V-NH2 (linker 2-6 via mXylyl) [R2029]	8840
Ac-CSICRV-NH2 (linker 1-4 via mXylyl) [R2037]	410
{des‑NH2}-CICRV-NH2 (linker 1-3 via mXylyl; not fully specified (residue 1); printed as [mXylyl(1,3)](des-NH2)C-ICRV-NH2) [R2049]	16300
MCEAICRV-NH2 (linker 2-6 via mXylyl) [R2018]	37.3
[Nva][Pen]ESI[Pen]RV-NH2 (linker 2-6 via mXylyl) [R2034]	> 100000
MCESACRV-NH2 (linker 2-6 via mXylyl) [R2017]	2140
[Nva]CESI[Pen]RV-NH2 (linker 2-6 via mXylyl) [R2032]	1030
Ac-CAS[Tle]CR[Tle]-NH2 (linker 1-5 via mXylyl) [R2048]	1400
MCESICRVN-NH2 (linker 2-6 via mXylyl) [R2014]	37.5
Ac-MCES[Chg]CRV-NH2 (linker 2-6 via mXylyl) [R2050]	11
[Nva]CESICRF-NH2 (linker 2-6 via mXylyl) [R2035]	7200
[Nva]CESIC[Phe(4-CH2NH2)]V-NH2 (linker 2-6 via mXylyl) [R2021]	2000
Ac-[Nva]CESIC[η‑ω‑MeR]V-NH2 (linker 2-6 via mXylyl) [R2054]	5000
MCESICRV-NH2 (linker 2-6 via 3‑methoxy‑mXylyl) [R2102]	39.7
MCESICRV-NH2 (linker 2-6 via pXylylene) [R2043]	617
[Nva]CES[Phg]CR[Tle]-NH2 (linker 2-6 via mXylyl) [R2013]	6.8
Ac-CESICRVL-NH2 (linker 1-5 via mXylyl) [R2045]	187
MC[Ala(1H-tetrazol-5-yl)]SICRV-NH2 (linker 2-6 via mXylyl) [R2020]	13
MC[NMeE]ESICRV-NH2 (linker 2-7 via mXylyl; not fully specified; printed as [mXylyl(2,6)]MC-nMeE-ESICRV-NH2) [R2027]	990
CAS[Phg]CR[Tle]-NH2 (linker 1-5 via mXylyl) [R2039]	11.9
